Source: PMC5048593
One block for each substance: values may come before it.

How the values were obtained:
Test in all cases: ITC
[1] = target: p107^ΔPL containing six mutations to the Rb sequence (p107^6x) (human) (UniProt P28749)
[2] = target: p107^ΔPL V490K (human) (UniProt P28749)
[3] = target: p107^ΔPL H797R (human) (UniProt P28749)
[4] = target: p107^ΔPL E560H (human) (UniProt P28749)
[5] = target: phosphorylated p107^ΔPL982 (human) (UniProt P28749)
[6] = target: Rb pocket domain lacking its large internal loop (Rb^ΔPL: residues 380–787 with 581–642 deleted) (human) (UniProt P06400)

- fold higher affinity than p107^ΔPL [1]: 3 fold
Substance: E2F1 transactivation domain (E2F1^TD) (domain or fragment)

- fold increase in affinity over p107^ΔPL [2]: 3 fold
- fold higher affinity than p107^ΔPL [1]: 24 fold
- fold increase in affinity over p107^ΔPL [3]: 3 fold
- fold increase in affinity over p107^ΔPL [4]: 3 fold
Substance: E2F2 transactivation domain (E2F2^TD) (domain or fragment)

- fold reduction in affinity against unphosphorylated p107^ΔPL982 [5]: 3 fold
Substance: E2F4 transactivation domain (E2F4^TD) (domain or fragment)

- fold increase in affinity over wild-type E2F4^TD [6]: 5 fold
Substance: E2F4^TD N395G (domain or fragment)
